Measurements from patent US20130177500A1 (TRUSTEES OF BOSTON UNIVERSITY, published 2013).

Tests used:
[1] = molecular target: T1, human dual endothelin-1/VEGF signal peptide receptor (hDEspR), on cells and tissue (human) (UniProt B0L3A2); assay: cell-based or functional assay
T1 sequence: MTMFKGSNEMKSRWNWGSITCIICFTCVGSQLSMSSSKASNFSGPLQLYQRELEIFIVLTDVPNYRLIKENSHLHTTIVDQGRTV

[2] = molecular target: T1, human dual endothelin-1/VEGF signal peptide receptor (hDEspR), on cells and tissue (human); assay: isotype-antibody microbubbles on HUVECs, 800× MB:cell ratio, microscopy (negative control)
[3] = molecular target: T2, human dual endothelin-1/VEGF signal peptide receptor (hDEspR), on cells and tissue (human, UniProt B0L3A2 1-85); assay: cell-based or functional assay
T2 sequence: T1 sequence

[4] = molecular target: T3, antigenic hDEspR 9-aa peptide (NH2-terminal 9 amino acids of hDEspR) (human); assay: indirect ELISA on the plate-coated antigenic 9-aa hDEspR peptide; two-fold serial dilutions of hybridoma supernatant holding mAb at 1 µg/ml (1 = 1/2 ... 12 = 1/4096); OD450
T3 construct: Free, unconjugated peptide coated on ELISA wells; The KLH conjugate was used only for immunisation; also called DEspR(1-9); free antigenic peptide
T3 peptide: MTMFKGSNE

“endothelin-1 (from UniProt P05305 53-73) (ligand)” gave a % CFC, BRCA1 S1497 (Kinex antibody microarray, 30 min, 10 nM ligand) [1] of 32 % CFC, a % CFC, CDK1/2 T14/Y15 (Kinex antibody microarray, 30 min, 10 nM ligand) [1] of 53 % CFC and a % CFC, CDK1/2 Y15 (Kinex antibody microarray, 30 min, 10 nM ligand) [1] of 281 % CFC. The % CFC, ERK1/2 T202 + Y204; T185 + Y187 (Kinex antibody microarray, 30 min, 10 nM ligand) [1] was 135 % CFC, the % CFC, FAK Panspecific (Kinex antibody microarray, 30 min, 10 nM ligand) [1] was 205 % CFC and the % CFC, FAK S722 (Kinex antibody microarray, 30 min, 10 nM ligand) [1] was 55 % CFC. For the same molecule, the % CFC, FAK S732 (Kinex antibody microarray, 30 min, 10 nM ligand) [1] was 62 % CFC, the % CFC, Met Panspecific (Kinex antibody microarray, 30 min, 10 nM ligand) [1] was 384 % CFC and the % CFC, PCNA Panspecific (Kinex antibody microarray, 30 min, 10 nM ligand) [1] was -47 % CFC. It also gave a % CFC, PKCa T638/T641 (Kinex antibody microarray, 30 min, 10 nM ligand) [1] of 137 % CFC, a % CFC, PKCe Panspecific (Kinex antibody microarray, 30 min, 10 nM ligand) [1] of 103 % CFC and a % CFC, Raf1 S259 (Kinex antibody microarray, 30 min, 10 nM ligand) [1] of 12 % CFC. The % CFC, SHP2 S576 (Kinex antibody microarray, 30 min, 10 nM ligand) [1] was 14 % CFC, the % CFC, STAT1 S727 (Kinex antibody microarray, 30 min, 10 nM ligand) [1] was 86 % CFC and the % CFC, STAT1 Y701 (Kinex antibody microarray, 30 min, 10 nM ligand) [1] was 95 % CFC. It also gave a % CFC, STAT3 S727 (Kinex antibody microarray, 30 min, 10 nM ligand) [1] of 133 % CFC, a % CFC, Shc1 or ShcA Y349, Y350 (Kinex antibody microarray, 30 min, 10 nM ligand) [1] of 9 % CFC and a % CFC, Smad 1/5/9 S463 + S465/S465 + S467 (Kinex antibody microarray, 30 min, 10 nM ligand) [1] of 18 % CFC. For the same molecule, the % CFC, Src Y418 (Kinex antibody microarray, 30 min, 10 nM ligand) [1] was -11 % CFC and the % CFC, Src Y529 (Kinex antibody microarray, 30 min, 10 nM ligand) [1] was -20 % CFC.

“isotype-antibody control microbubbles (MBC)” gave a % of HUVECs with bound MBs [2] of 6.8%.

B1: anti-hDEspR 7C5B2 monoclonal antibody (antibody, IgG2b, V domains shown)
VH: QVQLKESGPGLVAPSQSLSITCTVSGFSLTSYDISWIRQPPGKGLEWLGVIWTGGGTNYNSAFMSRLSISKDNSKSQVFLKMNSLQTDDTAIYYCVRDRDYDGWYFDVWGAGTTVTVSS
VL: DVLMTQTPLSLPVSLGDQASISCRSSQSIVHSNGNTYLEWYLQKPGQSPKLLIYKVSNRFSGVPDRFSGSGSGTDFTLKISRVEAEDLGVYYCFQGSHVPYTFGGGTKLEIK
notes: Tested as hybridoma supernatant and as purified antibody; also called 7C5B2 antibody; 7C5B2 anti-DEspR antibody
B1 was tested, and the “EC50, inhibition of MDA-MB-231 tumor cell invasiveness (Matrigel invasion assay)” value [3] was 3.55 nM, the “EC50, inhibition of total tube length per well (HUVEC tube formation assay)” value [3] was 4.34 nM and the binding result [4] was “binds”.
